Several values for one entry are separate records, joined by “and”; a condition that tells them apart may be missing. Equal values may be shown once.
How the values were obtained:
[1] = molecular target: T1, LILRB3 expressed on cells (human, UniProt O75022 24-631); test: flow cytometry on CHO-LILRB3 cells
T1 construct: whole, on cells; Expressed with a GFP tag from the bought plasmid; also called human LILRB3; CHO-LILRB3

[2] = molecular target: T2, LILRB2-ECD-HIS (SinoBiological Cat #: 14132-H02H) (human, UniProt Q8N423 22-460); test: BLI (Gator), RB2-ECD-his
T2 construct: Bought protein; also called monomeric antigen LILRB2-ECD-HIS; not shown: His tag
T2 sequence (Q8N423 other isoform, or with tags, fused parts or gaps H02H H02H): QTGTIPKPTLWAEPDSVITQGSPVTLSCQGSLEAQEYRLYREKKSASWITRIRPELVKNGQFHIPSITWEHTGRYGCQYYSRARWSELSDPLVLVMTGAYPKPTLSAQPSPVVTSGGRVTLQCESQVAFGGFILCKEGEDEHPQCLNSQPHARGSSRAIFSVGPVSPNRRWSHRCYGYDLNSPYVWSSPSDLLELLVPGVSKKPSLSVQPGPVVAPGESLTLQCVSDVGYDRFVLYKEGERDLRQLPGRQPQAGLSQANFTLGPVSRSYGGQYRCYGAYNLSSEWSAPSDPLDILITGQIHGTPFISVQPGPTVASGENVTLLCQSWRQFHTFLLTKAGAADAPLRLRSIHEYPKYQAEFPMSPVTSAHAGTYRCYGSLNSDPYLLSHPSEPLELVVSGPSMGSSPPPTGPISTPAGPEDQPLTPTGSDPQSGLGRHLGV

[3] = molecular target: T3, cynomolgus monkey putative LILRB2 (antigen of the Gator measurement) (cynomolgus monkey); test: BLI (Gator), cyno RB2-his
T3 construct: also called cynomolgus monkey LILRB2

[4] = molecular target: T4, LILRB1-ECD-HIS (SinoBiological Cat #: 16014-H02H) (human, UniProt Q8NHL6 24-461); test: SPR (Carterra), LILRB1-ECD-his
T4 construct: Bought protein; also called monomeric antigen LILRB1-ECD-HIS; not shown: His tag
T4 sequence (Q8NHL6 other isoform, or with tags, fused parts or gaps H02H H02H): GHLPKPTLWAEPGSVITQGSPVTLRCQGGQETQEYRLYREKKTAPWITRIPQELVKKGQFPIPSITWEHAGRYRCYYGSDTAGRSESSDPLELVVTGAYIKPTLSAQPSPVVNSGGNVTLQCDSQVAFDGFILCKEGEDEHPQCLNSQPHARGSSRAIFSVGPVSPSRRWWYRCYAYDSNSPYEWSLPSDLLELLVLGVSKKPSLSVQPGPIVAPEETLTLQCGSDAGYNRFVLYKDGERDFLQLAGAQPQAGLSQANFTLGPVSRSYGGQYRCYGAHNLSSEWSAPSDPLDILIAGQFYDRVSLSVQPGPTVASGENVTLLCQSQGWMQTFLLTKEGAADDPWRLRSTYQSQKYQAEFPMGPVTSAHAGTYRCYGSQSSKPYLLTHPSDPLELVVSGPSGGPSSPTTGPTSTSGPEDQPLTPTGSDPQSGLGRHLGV

[5] = molecular target: T5, human LILRB2 expressed on cells (human, UniProt Q8N423 22-597); test: flow cytometry, CHO-LILRB2 cells
T5 construct: In 293T cells it was expressed from pCMV3-LILRB2-GFP; also called CHO-LILRB2; Jurkat-LILRB2
T5 sequence (Q8N423 other isoform, or with tags, fused parts or gaps limits assumed): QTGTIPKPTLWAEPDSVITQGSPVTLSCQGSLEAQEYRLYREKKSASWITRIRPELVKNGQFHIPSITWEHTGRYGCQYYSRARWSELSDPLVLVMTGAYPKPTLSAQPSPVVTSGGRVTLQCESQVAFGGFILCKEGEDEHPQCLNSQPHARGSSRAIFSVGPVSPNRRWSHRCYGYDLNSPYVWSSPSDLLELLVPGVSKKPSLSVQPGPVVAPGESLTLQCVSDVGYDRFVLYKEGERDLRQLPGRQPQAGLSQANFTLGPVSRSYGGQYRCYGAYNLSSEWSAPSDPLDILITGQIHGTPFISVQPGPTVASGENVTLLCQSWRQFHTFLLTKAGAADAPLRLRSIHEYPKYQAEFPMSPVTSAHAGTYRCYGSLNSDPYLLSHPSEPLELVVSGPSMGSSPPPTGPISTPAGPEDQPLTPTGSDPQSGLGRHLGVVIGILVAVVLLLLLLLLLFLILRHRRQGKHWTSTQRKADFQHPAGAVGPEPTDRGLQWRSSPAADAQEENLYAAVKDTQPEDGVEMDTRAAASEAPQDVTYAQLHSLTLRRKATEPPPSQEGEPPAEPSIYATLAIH

[6] = molecular target: T4, LILRB1-ECD-HIS (SinoBiological Cat #: …); test: SPR (Carterra LSA), antibody captured, antigen injected;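 further: kd obtained from kinetic analysis of antibody binding to the antigen, with association and dissociation phases fitted in the instrument software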
[7] = molecular target: T2, LILRB2-ECD-HIS (SinoBiological Cat #: …); test: as above
[8] = molecular target: T4, LILRB1-ECD-HIS (SinoBiological Cat #: …); test: BLI (Gator), trace labelled 2 µg/mL; unit taken from the Average KD line
[9] = molecular target: T4, LILRB1-ECD-HIS (SinoBiological Cat #: …); test: BLI (Gator), trace labelled 5 µg/mL; unit taken from the Average KD line
[10] = molecular target: T4, LILRB1-ECD-HIS (SinoBiological Cat #: …); test: BLI (Gator), trace labelled 0.5 µg/mL; unit taken from the Average KD line
[11] = molecular target: T4, LILRB1-ECD-HIS (SinoBiological Cat #: …); test: BLI (Gator Prime), antibody on anti-hIgG Fc probe, monomeric LILRB1-ECD-HIS in solution
[12] = molecular target: T6, human LILRB1 expressed on cells (human, UniProt Q8NHL6 24-650); test: flow cytometry on CHO-LILRB1 cells, non-linear fit of the curves of FIG. 26A
T6 construct: In 293T cells it was expressed from pCMV3-LILRB1-GFP; also called CHO-LILRB1; Jurkat-LILRB1
T6 sequence (Q8NHL6 other isoform, or with tags, fused parts or gaps limits assumed): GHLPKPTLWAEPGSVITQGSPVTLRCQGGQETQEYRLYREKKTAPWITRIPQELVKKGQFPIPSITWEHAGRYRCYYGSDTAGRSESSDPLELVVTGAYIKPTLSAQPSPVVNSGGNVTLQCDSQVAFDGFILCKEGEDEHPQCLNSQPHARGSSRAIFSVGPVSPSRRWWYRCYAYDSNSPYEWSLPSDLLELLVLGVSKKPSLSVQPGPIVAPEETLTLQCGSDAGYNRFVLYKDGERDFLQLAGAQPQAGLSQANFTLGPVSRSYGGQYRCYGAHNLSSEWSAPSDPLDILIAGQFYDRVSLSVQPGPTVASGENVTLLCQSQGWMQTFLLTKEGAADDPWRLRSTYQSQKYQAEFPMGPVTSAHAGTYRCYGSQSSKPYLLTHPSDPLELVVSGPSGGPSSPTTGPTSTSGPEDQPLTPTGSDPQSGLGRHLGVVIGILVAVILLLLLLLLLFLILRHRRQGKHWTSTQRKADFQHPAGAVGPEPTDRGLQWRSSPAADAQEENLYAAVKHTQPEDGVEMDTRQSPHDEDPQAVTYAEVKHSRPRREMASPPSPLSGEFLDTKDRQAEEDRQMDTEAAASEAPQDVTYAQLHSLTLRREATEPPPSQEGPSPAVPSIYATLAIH

[13] = molecular target: T6, human LILRB1 expressed on cells; test: flow cytometry, CHO-LILRB1 cells; blocked ligand: APC HLA-G trimer tetramer
[14] = molecular target: T7, cynomolgus (monkey) LILRB2 expressed on CHO cells (cynomolgus monkey); test: flow cytometry on CHO-cynoLILRB2 cells, non-linear fit of the curves of FIG. 26D
T7 construct: whole, on cells; Putative orthologue; also called cynoLILRB2; cynoRB2

[15] = molecular target: T5, human LILRB2 expressed on cells; test: flow cytometry, Jurkat-LILRB2 cells; blocked ligand: APC HLA-G monomer tetramer
[16] = molecular target: T6, human LILRB1 expressed on cells; test: flow cytometry on CHO-LILRB1 cells (CHO-RB1), titrated antibody, labelled anti-human Fc, gMFI
[17] = molecular target: T5, human LILRB2 expressed on cells; test: flow cytometry on CHO-LILRB2 cells (CHO-RB2), titrated antibody, labelled anti-human Fc, gMFI
[18] = molecular target: T8, LILRA1 expressed on cells (human, UniProt O75019 17-489); test: flow cytometry on CHO-LILRA1 cells (CHO-RA1), titrated antibody, labelled anti-human Fc, gMFI
T8 construct: whole, on cells; GFP-tagged; also called human LILRA1; CHO-LILRA1
T8 sequence (O75019 17-489): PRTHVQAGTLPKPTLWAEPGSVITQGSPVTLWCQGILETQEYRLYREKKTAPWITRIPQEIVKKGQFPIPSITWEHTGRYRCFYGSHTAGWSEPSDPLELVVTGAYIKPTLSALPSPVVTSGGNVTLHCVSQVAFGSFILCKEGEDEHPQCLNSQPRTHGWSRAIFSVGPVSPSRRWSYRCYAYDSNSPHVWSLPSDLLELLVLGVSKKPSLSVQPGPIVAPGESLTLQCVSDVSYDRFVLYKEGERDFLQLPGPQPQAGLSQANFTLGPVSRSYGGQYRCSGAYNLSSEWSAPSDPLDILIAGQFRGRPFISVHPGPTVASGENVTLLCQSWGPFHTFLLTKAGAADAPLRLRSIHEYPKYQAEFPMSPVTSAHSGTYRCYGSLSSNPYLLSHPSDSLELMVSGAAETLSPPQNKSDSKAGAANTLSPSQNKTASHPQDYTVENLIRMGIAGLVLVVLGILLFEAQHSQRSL

[19] = molecular target: T9, LILRB5 expressed on 293T cells (UniProt O75023 24-590, limits assumed); test: flow cytometry on 293T cells transiently expressing LILRB5, APC anti-human Fc; gMFI as fold to IgG staining
T9 construct: whole, on cells; GFP-tagged, transient
T9 sequence (O75023 24-590 limits assumed): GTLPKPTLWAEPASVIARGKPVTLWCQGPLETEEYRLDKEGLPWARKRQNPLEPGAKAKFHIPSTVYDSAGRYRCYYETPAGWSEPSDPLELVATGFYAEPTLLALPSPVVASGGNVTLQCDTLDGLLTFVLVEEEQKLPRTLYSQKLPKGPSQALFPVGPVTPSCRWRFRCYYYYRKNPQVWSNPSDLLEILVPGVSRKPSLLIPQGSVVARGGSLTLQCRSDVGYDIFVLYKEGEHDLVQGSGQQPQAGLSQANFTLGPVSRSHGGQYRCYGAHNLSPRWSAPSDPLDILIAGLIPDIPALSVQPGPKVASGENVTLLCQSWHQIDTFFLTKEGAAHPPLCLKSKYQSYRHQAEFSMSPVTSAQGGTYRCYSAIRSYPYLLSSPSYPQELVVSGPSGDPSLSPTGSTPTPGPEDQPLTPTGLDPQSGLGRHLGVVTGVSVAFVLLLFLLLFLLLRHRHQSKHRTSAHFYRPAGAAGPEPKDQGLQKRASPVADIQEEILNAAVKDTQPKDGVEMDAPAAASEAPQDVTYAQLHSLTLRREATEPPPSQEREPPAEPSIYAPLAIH

EC50 [1]: 4 µg/mL and 26.6 nM | Kd [2]: 0.469 nM | Kd [3]: 1.36 nM | Kd [4]: 5.67 nM | koff [4]: 0.000347 s⁻¹ | kon [4]: 61300 M⁻¹ s⁻¹ | EC50 [5]: 0.21 µg/mL | gMFI (max) [5]: 21900 | Kd [6]: 9.77 nM | Kd [7]: 1.57 nM | Kd [8]: 3.45 nM | Kd [9]: 3.61 nM | Kd [10]: 3.13 nM | Kd [11]: 3.4 nM | EC50 [12]: 0.218 µg/mL | MaxMFI [12]: 110000 | IC50 [13]: 0.208 µg/mL | EC50 [14]: 2.85 µg/mL | IC50 (read off the curve) [15]: ~0.06 µg/mL | EC50 (read off the curve) [16]: ~0.2 µg/mL | EC50 (read off the curve) [17]: ~0.1 µg/mL | EC50 (read off the curve) [18]: ~0.5 µg/mL | binding result [19]: no binding (tested: 5 µg/mL)
B1: D2M002-002 (antibody, V domains shown)
VH: EVQLQQSGPELVKPGASVKMSCKASGYTFTRYVMHWVKQKPGQGLEWIGYINPNNDGTKYNEKFKGKVTLTSDKSSSTAYMELSSLTSEDSAVYYCARGDLEILPYYDHARNAMDYWGQGTSVTVSS
VL: DVQMIQSPASLSASVGETVTITCRASENIYSYLAWYQQKQGKSPQLLVYNAKTLAEGVPSRFSGSGSGTQFSLKINSLQPEDFGSYYCQHFWSTPPTFGGGTKLEIK
notes: Hit from immunised mice; also called clone #2; anti-LILRB1/2 clone #2

Reference: patent US20250171534A1 (D2M BIOTHERAPEUTICS, published 2025)
